Data from article doi:10.1101/780452, “Development of c-type lectin oriented surfaces for high avidity glycoconjugates: towards mimicking multivalent interactions on the cell surface” (bioRxiv, 2019).

Biological target: T1, BSA-Man (glycoprotein bearing 12 glycosylated sites) (bovine (from the name BSA), UniProt P02769 25-607, 12 glycosylated sites (mannose glycans, up to 12 glycans displayed))
T1 construct: BSA (serum albumin) carrying mannose glycans; A neoglycoprotein; also called Man-BSA
Assay: SPR; BSA-Man titrated over a DC-SIGN S-ECD oriented surface (StrepTactin-functionalised CM3 chip, Biacore T200); 25 mM Tris pH 8, 150 mM NaCl, 4 mM CaCl2, 0.05% P20; steady state affinity model; apparent KD for the surface
Settings: both partners purified

T1 sequence (P02769 25-607): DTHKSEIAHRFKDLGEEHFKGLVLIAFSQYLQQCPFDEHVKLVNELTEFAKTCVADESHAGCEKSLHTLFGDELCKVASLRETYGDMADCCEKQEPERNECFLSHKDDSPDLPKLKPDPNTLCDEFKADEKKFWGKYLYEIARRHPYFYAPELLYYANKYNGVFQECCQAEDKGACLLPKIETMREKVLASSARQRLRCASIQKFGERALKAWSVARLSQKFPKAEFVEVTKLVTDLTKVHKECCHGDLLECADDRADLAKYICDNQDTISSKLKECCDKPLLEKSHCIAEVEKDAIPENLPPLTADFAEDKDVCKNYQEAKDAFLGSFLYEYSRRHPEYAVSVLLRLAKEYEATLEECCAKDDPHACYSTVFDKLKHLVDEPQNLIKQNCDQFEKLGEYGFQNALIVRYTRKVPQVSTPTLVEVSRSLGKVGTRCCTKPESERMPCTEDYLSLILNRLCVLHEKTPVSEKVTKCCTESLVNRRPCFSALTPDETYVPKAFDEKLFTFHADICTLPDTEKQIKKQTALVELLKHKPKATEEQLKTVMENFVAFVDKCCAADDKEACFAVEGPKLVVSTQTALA

Kd: 5 nM
B1: DC-SIGN S-ECD (DC-SIGN extracellular domain tagged at its N-terminus with a StreptagII) (domain or fragment, UniProt Q9NNX6 66-404, looked up)
chain: SISQEQSRQDAIYQNLTQLKAAVGELSEKSKLQEIYQELTQLKAAVGELPEKSKLQEIYQELTRLKAAVGELPEKSKLQEIYQELTWLKAAVGELPEKSKMQEIYQELTRLKAAVGELPEKSKQQEIYQELTRLKAAVGELPEKSKQQEIYQELTRLKAAVGELPEKSKQQEIYQELTQLKAAVERLCHPCPWEWTFFQGNCYFMSNSQRNWHDSITACKEVGAQLVVIKSAEEQNFLQLQSSRSNRFTWMGLSDLNQEGTWQWVDGSPLLPSFKQYWNRGEPNNVGEEDCAEFSGNGWNDDKCNLAKFWICKKSAASCSRDEEQFLSPAPATPNPPPA
notes: DC-SIGN (Dendritic Cell specific ICAM-3 Grabbing Non-integrin), extracellular domain, amino acids 66-404; A factor Xa cleavage site lies between the N-terminal StreptagII and the ECD; On the chip the protein was captured by StrepTactin and then covalently fixed with EDC/NHS; source: E. coli Rosetta (DE3), inclusion bodies, purified (StrepTactin column, Mannan-agarose, Superose-12); not shown: …
